Reference: PMC7614608 (Nature, 2023)

Molecular target: T1, 6x-His-3C-EIF4A3 (human, UniProt P38919 1-411)
T1 construct: EIF4A3, human, full length; source: E. coli BL21 DE3 RIL, purified (HisTrap, HiTrapQ, Superdex 75); not shown: His6, N-terminal, kept
Test: pull-down; MBP-tagged bait (ALYREF constructs or CASC3 SELOR) mixed overnight at 4 °C with EIF4A3, Y14(66-154)–MAGOH, ssRNA and AMP-PNP in 25 mM HEPES pH 7.9, 50 mM NaCl, 5 mM MgCl2; held on amylose resin, maltose elution, SDS-PAGE with Coomassie
Conditions: both partners purified

T1 sequence (P38919 whole entry): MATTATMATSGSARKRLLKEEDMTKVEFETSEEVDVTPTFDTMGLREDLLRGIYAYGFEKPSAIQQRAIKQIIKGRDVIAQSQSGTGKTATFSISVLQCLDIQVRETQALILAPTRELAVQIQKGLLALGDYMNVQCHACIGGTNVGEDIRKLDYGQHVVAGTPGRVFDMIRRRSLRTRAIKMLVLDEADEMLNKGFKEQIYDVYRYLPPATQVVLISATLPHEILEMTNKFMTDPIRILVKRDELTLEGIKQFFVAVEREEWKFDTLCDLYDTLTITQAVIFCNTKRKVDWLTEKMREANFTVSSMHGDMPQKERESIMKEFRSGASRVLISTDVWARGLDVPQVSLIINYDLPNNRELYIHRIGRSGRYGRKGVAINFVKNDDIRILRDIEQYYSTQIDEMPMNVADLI

binding result: binds
B1: 10x-His-MBP-3C-ALYREFN (ALYREF residues 1-182) (domain or fragment)
chain: not shown
notes: also called MBP-ALYREFN; source: E. coli BL21 DE3 RIL, purified (HisTrap, cation exchange, Superdex 75); not shown: His10, N-terminal, kept; MBP, N-terminal, kept
